From publication PMC2920321, “Characterization of ftsZ Mutations that Render Bacillus subtilis Resistant to MinC” (PLoS ONE, 2010) come the findings set out here.

This data set concerns the molecule itself. Briefly: sedimentation of polymers by ultracentrifugation; FtsZ 10 µM, pH 6.5 buffer, with ZapA (10 µM), without DEAE-dextran.

B1: FtsZ8 (FtsZ S219L) (natural protein, B. subtilis, UniProt P17865 1-382, looked up)
chain: MLEFETNIDGLASIKVIGVGGGGNNAVNRMIENEVQGVEYIAVNTDAQALNLSKAEVKMQIGAKLTRGLGAGANPEVGKKAAEESKEQIEEALKGADMVFVTAGMGGGTGTGAAPVIAQIAKDLGALTVGVVTRPFTFEGRKRQLQAAGGISAMKEAVDTLIVIPNDRILEIVDKNTPMLEAFREADNVLRQGVQGISDLIATPGLINLDFADVKTIMLNKGSALMGIGIATGENRAAEAAKKAISSPLLEAAIDGAQGVLMNITGGTNLSLYEVQEAADIVASASDQDVNMIFGSVINENLKDEIVVTVIATGFIEQEKDVTKPQRPSLNQSIKTHNQSVPKREPKREEPQQQNTVSRHTSQPADDTLDIPTFLRNRNKRG
notes: FtsZ, Bacillus subtilis, mutant ftsZ8; source: overexpression plasmid pSG5333 (Ptac-ftsZ8, derivative of pCXZ); purified essentially as described [21]
B1: the binding result is “binds”.
